Measurements reported in patent US20260061032A1.

Columns and labels:
[1] = molecular target: cyCD73; assay: SPR, Biacore T200; binder captured on CM5 chip by human antibody capture kit, CD73 as analyte
[2] = molecular target: hCD73 (human) (UniProt P21589); assay: as above
[3] = molecular target: hCD73 (human) (UniProt P21589); assay: cell-based or functional assay
[4] = molecular target: membrane-bound human CD73 (human) (UniProt P21589); assay: cell-based or functional assay
[5] = molecular target: hIL-2Rβγ (human) (UniProt P14784); assay: SPR, Biacore T200; hIL-2Rβγ as analyte, single cycle kinetics; three-step format as the filing describes it
[6] = molecular target: hIL-2Rβ (human) (UniProt P14784); assay: SPR, Biacore T200; hIL-2Rβ as analyte; three-step format as the filing describes it
[7] = molecular target: hIL-2Rα (human) (UniProt P01589); assay: SPR, Biacore T200; hIL-2Rα on CM5 chip through His capture kit, binder as analyte
[8] = molecular target: IL-2Rβγ on HEK-BLUE IL-2 reporter cells (UniProt P14784); assay: cell-based or functional assay
[9] = molecular target: hIL-2Rαβγ on CTLL-2 cells (human) (UniProt P01589); assay: cell-based or functional assay
hIL-2Rαβγ on CTLL-2 cells (human), sequence (P01589 22-272, chain 1 of 3): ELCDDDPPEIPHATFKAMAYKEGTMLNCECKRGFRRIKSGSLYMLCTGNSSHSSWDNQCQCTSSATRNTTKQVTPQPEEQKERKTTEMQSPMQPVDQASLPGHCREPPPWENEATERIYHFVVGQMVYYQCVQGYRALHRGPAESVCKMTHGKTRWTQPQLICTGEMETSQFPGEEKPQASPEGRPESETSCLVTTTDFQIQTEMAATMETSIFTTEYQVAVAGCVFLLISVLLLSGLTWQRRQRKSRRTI
hIL-2Rαβγ on CTLL-2 cells (human), sequence (P14784 27-551, chain 2 of 3, further chain): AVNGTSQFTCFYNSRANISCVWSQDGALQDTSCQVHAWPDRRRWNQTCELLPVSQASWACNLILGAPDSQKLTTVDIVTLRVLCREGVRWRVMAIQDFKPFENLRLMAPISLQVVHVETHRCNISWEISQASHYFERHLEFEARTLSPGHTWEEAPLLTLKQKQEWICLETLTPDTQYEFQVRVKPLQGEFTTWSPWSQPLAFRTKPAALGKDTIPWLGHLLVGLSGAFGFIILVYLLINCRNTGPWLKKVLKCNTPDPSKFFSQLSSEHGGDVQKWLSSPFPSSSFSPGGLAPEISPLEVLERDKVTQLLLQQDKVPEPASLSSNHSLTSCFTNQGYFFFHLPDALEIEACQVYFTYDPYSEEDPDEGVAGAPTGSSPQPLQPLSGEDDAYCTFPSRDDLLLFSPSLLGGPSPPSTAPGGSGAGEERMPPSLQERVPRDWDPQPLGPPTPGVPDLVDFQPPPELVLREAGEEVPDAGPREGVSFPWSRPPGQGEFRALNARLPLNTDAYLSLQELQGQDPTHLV
hIL-2Rαβγ on CTLL-2 cells (human), sequence (P31785 23-369, chain 3 of 3, further chain): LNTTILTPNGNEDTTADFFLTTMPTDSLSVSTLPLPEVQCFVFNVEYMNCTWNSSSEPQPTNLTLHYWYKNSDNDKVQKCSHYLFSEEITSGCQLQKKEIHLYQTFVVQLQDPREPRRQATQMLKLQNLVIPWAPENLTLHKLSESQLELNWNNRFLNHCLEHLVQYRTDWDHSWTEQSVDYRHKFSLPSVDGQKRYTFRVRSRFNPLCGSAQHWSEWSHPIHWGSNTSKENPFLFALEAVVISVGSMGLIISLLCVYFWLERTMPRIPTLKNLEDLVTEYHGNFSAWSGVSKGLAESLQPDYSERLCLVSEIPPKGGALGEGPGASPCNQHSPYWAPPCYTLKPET

hCD73 (human), sequence (P21589 27-549 limits assumed): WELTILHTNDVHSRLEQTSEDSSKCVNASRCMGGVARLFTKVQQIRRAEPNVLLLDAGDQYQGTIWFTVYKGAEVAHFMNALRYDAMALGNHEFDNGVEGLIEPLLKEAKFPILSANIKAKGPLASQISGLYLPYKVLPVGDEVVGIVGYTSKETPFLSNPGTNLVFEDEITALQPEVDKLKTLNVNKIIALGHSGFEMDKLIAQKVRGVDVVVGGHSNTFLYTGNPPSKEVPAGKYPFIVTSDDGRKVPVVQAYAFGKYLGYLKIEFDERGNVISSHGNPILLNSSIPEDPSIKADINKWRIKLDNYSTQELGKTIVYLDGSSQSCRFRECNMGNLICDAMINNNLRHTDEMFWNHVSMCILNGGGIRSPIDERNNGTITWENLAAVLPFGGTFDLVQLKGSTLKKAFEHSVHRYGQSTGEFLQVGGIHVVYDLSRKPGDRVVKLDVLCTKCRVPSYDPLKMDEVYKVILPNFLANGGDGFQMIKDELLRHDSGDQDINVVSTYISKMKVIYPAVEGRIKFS
hIL-2Rα (human), sequence (P01589 22-213): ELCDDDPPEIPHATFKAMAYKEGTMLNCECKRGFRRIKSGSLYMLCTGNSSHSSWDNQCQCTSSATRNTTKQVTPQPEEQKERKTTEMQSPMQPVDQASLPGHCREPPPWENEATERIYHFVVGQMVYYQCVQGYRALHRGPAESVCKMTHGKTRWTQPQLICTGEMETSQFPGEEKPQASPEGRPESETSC
IL-2Rβγ on HEK-BLUE IL-2 reporter cells, sequence (P14784 27-551, chain 1 of 2): as the sequence (P14784 27-551, chain 2 of 3, further chain) above
IL-2Rβγ on HEK-BLUE IL-2 reporter cells, sequence (P31785 23-369, chain 2 of 2, further chain): as the sequence (P31785 23-369, chain 3 of 3, further chain) above
hIL-2Rβ (human), sequence (P14784 27-239): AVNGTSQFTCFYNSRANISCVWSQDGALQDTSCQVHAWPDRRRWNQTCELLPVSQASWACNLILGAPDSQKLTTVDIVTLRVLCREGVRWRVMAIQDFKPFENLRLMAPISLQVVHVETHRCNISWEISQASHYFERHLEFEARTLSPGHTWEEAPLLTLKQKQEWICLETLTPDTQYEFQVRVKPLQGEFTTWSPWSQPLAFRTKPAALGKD
hIL-2Rβγ (human), sequence (P14784 27-239, chain 1 of 2): as the sequence (P14784 27-239) above
hIL-2Rβγ (human), sequence (P31785 23-254, chain 2 of 2, further chain): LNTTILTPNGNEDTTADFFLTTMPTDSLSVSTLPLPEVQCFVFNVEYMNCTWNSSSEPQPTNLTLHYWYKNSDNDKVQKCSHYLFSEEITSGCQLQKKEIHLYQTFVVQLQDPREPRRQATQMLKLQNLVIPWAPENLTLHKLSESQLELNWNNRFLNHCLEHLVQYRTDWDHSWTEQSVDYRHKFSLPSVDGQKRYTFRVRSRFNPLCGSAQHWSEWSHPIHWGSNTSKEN
membrane-bound human CD73 (human), sequence (P21589 27-549 limits assumed): as the sequence (P21589 27-549 limits assumed) above

Substance	Kd [1] [nM]	Kd [2] [nM]	IC50, inhibition of soluble CD73 enzyme activity (AMP-Glo assay, recombinant human CD73) [3] [nM]	IC50, inhibition of membrane-bound CD73 enzyme activity on MDA-MB-231 cells (adenosine assay) [4] [nM]	Kd [5] [nM]	Kd [6] [nM]	Kd [7] [nM]	EC50, SEAP reporter (JAK-STAT pathway activation) in HEK-BLUE IL-2 reporter cells [8] [nM]	EC50, CTLL-2 cell proliferation (WST-1 absorbance) [9] [nM]
Oleclumab (Astrazeneca), produced on order from Ybiologics, Inc. (antibody)	0.349	0.101	0.03	1.47					
Aldesleukin (trade name: PROLEUKIN, Novartis) (ligand)					0.01	2080	49.6	0.0103	0.08
